Experimental data from PMC11855083.

target: T1, His6-NfxB (Pseudomonas aeruginosa PAO1?) (UniProt P32265); test: EMSA; settings: pH 7.0, room temperature, 10 min ([…]
T1 sequence: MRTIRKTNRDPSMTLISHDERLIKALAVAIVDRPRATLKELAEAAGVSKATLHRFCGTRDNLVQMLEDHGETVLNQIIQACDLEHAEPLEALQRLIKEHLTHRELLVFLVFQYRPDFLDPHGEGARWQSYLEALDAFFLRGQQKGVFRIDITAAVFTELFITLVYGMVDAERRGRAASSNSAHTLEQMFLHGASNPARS

Sequence | binding
ACGCAAATCAGCCATGACACACCCGACCGTTGATTGAAAACGGATCGAATGGTACTTTTTCGAGCTAATTGAGTCAATATTGTCTCAAATGATCTTTTGACAGCTAATTCCTTTGGACGCGAGGCCAGTTTTCTGCACAATGCGCACAATCAGAAAAACCAACCGGGACCCATCGATGACCCTGAT (double strand) [mexC promoter] | binds
ATCTTTCCTCCCGTGTGGCTCGCGCCACTACGCTATGCAAGCGCCCGCCACCATGGCAGGCGCTGTCGTTGAATGCCTCAGGCCTCTTTGGCCGAAGGCAGCTTGGA (double strand) [hcp1T (hcp1 promoter with potential NfxB motif truncated)] | no binding
TCCAAGCTGCCTTCGGCCAAAGAGGCCTGAGGCATTCAACGACAGCGCCTGCCATGGTGGCGGGCGCTTGCATAGCGTAGTGGCGCGAGCCACACGGGAGGAAAGATGGCTGTTGATATGTTCATCAAGATCGGC (double strand) [hcp1 promoter (phcp1)] | binds
